{
  "source": "patent US20100130423",
  "key": {"[1]": {"biological_target": "LnK PH domain (from V5-LnK mutant constructs) (UniProt Q9UQQ2)"}, "[2]": {"biological_target": "adaptor protein LnK, wild type (UniProt Q9UQQ2)"}},
  "data": [
    {"substance": "JAK2 V617F", "values": [
      {"measurement": "JAK2 V671F autophosphorylation levels", "setting": "[1]", "value": "The LnK PH domain associates with and inhibits JAK2 V671F"},
      {"measurement": "tyrosine phosphorylation of LnK (anti-phosphotyrosine immunoprecipitation, LnK Western blot)", "setting": "[2]", "value": "the phosphorylation levels of LnK itself are higher in 293T cells expressing JAK2 V617F compared with cells expressing JAK2 WT"}
    ]}
  ]
}
